Measurements taken from the DeepSol protein solubility set.

Experiment: soluble on expression in E. coli; label from the status in PepcDB or PDB records

Row | Sequence | soluble on expression in E. coli
1 | MSLGYKCVYMLSEIKEYLKNTVLFAFDFETSPRDKWRNDKSAALDAHKADITGISFSVSEGTAIYVPLKHRSGRNAENQAAIWDYLKLLFESKDVIKVAHNLAFESMFLYARGIVLQKPCYDTIAASQLTLKSKWEFRSLADSGLKTLAPALCKAEMTEFSTVTEGRFFDELNPQDEKTVRYACADSDYTLRLYHVFNQWFDRFLPKHRTIVEEVESPTSVYVGIMKYNGILVDKSAMLKKQAEAAEKIVSIRKEIAGIIGNVEIGANASTSAFKKYLFVDLGLPVMKTTAKHQEAADDETMILLKEWCATNRPELVRLFELVQEYRKWGKLKSTYIDGYLRFIDEDTGRIHPDLMPLGTETGRFASRNPNMQNCPQKDNDPIGVRKFIIAPAGKVLLSLDFSQIELRVGAFYCRDKRMLETYRTGGDIHAQTTSVIYRIPFEEAADKNAPHYKERRTIAKNCNFGVFYGLFPTGLQRTLKFKAGINPTLAECETIIQNLKSGYPGLAKWQDEVKKRAAVSCYSETWLGRRRYLLGIRSSDWGKKSFAERCALNTPIQGTAADILKLACGRIISGLPERLWLKPMLQIHDELVFELPEDKVDEAVVFIKECMETQPFPAFDVPIVAEASVGRNFGEMKEMEEGHHHHHH | soluble
2 | MADEVTIGFRFYPTEEELVSFYLRNQLEGRSDDSMHRVIPVLDVFEVEPSHLPNVAGVRCRGDAEQWFFFVPRQEREARGGRPSRTTGSGYWKATGSPGPVFSKDNKMIGAKKTMVFYTGKAPTGRKTKWKMNEYHAVDETVNASTIPKLRREFSLCRVYITTGSSRAFDRRPEGVLQTERMLTSDVAVAETSFRVESSLETSISGGEHIDVSMNTEFVDGLSEPMWDWEQLTWP | soluble
3 | MEVIKITPRGYCYGVVDAMVIARNAALDPSLPRPIYILGMIVHNKHVTDAFAEEGIITLDGENRLEILEKIDHGTVIFTAHGVSPEVKKRALEKGLVTIDATCPDVTKTHRLIEQKLADGYDIIYIGKKGHPEPEGAVGINPERIHLVETIDDVERLSIHNERIMVTNQTTMSQWDVADIMAKVKEKYPHVEMHKEICLATQLRQEAVAEQAKEADVTIVVGDPRSNNSNRLAQVSEEIAGTKAYRVADVTEIDINWIKDAKKVAVTAGASTPTPITKEVIDFLEQFDPNDPSTWKRERKVPLQKILPKVKTKKEE | not soluble
4 | MFKIQEVRELIKLIDSSNIDEFEYKKDGTTIKMKKRGNEVVAVQAPVAKQAVQPVAPVEVETTVAAAQVEVPKQEEKKAVQNENLHKITSPMVGTFYSSSSSSPDTPPYVSVGDRVSKDSIVCIVEAMKLFNEIDADVDGEIVEILVNNGQLVEYGQPLFLVKA | not soluble
5 | MSLNYEGRVLVVDDVNDIRMLVGHMVQNSGLKVEYGRNGLEALDKVTDAINDGDPYDLVLIDIHMPVMNGSEAIKQIRSSGIHFPVVAMTAATMKGVRDQLISQGFTNVLEKPINHDALLKVLDAHLTAVSEPIQVETTDAHDNDASQQDESSERQHFLLVEDDVDAADITALLLESLGIDVHVAHSGQECMDVFNQRNDWSKVLMDLNLPDASGLNLAKEIHKTSPQLELVLLSGEEPDAQSMADADITKFILKPINKKVLSDLVEEGHHHHHH | soluble
6 | MATQHPIGKKTACVVGGTGFVASLLVKLLLQKGYAVNTTVRDPDNQKKVSHLLELQELGDLKIFRADLTDELSFEAPIAGCDFVFHVATPVHFASEDPENDMIKPAIQGVVNVMKACTRAKSVKRVILTSSAAAVTINQLDGTGLVVDEKNWTDIEFLTSAKPPTWGYPASKTLAEKAAWKFAEENNIDLITVIPTLMAGSSLTSDVPSSIGLAMSLITGNEFLINGMKGMQMLSGSVSIAHVEDVCRAHIFVAEKESASGRYICCAANTSVPELAKFLSKRYPQYKVPTDFGDFPPKSKLIISSEKLVKEGFSFKYGIEEIYDESVEYFKAKGLLQN | soluble
7 | MQDRIFAFTPKGSLFQLPKGATPIDFAFAVHTNLGAQAVGAKINGRHVPLRTPLGNGDVVEIIKSRTSEPQLEHHHHHH | not soluble
8 | MNAHVTSREGVNEFDDGIVIVGGGLAAARTAEQLRRAGYSGRLTIVSDEVHLPYDRPPLSKEVLRSEVDDVALKPREFYDEKDIALRLGSAAVSLDTGEQTVTLADGTVLGYDELVIATGLVPRRIPSLPDLDGIRVLRSFDESMALRKHASAARHAVVVGAGFIGCEVAASLRGLGVDVVLVEPQPAPLASVLGEQIGQLVTRLHRDEGVDVRTGVTVAEVRGKGHVDAVVLTDGTELPADLVVVGIGSTPATEWLEGSGVEVDNGVICDKAGRTSAPNVWALGDVASWRDPMGHQARVEHWSNVADQARVVVPAMLGTDVPTGVVVPYFWSDQYDVKIQCLGEPHATDVVHLVEDDGRKFLAYYERDGVLVGVVGGGMAGKVMKVRGKIAAGAPIAEVLDQTQA | soluble
9 | SKNGLKKRKLTNPVQLDDFDGYIKDMAKDSDYKFSLQFEELKLIGLDIPHFAADLPMNRCKNRYTNILPYDFSRVRLVSMNEEEGSDYINANYIPGYNSPQEYIATQGPLPETRNDFWKMVLQQKSQIIVMLTQCNEKRRVKCDHYWPFTEDPIAYGDITVEMLSEEEHTDWVYRNFRISYADEVQDVMHFNYTAWPDHGVPTANAAESILQFVQMVRQKSVKSKGPMIIHCSAGVGRTGTFIALDWLLQHIRDHEFVDILGLVSDMRSYRMSMVQTEEQYIFIHQCVQLMWQKKKQQFCISDVIYENVSKS | soluble
10 | MAHHHHHHMEQDAASRPVTESEQTTTSYHGHTVSFLLLLYRRLEFESSGSTRPKAMLLRSDDTSPWPSPAPLSPVPSRPSSCRSSFSSLSVTSCISIISLLISSKTAVSRFTSSSWRLRRSSSCCCNSCAVAILLPLRAHGTTQPTGKKKKKKKEREKRKTQDAHHN | not soluble
11 | SIAYIEPYFLENDAEAASAATAAGKSTDGVSESLNIQGEILCGGAAADIAGRDFGGMNCVKPLAVVRPVGPEDIAGAVKAALRSDKLTVAARGNGHSINGQAMAEGGLVVDMSTTAENHFEVGYLSGGDATAFVDVSGGALWEDVLKRCVSEYGLAPRSWTDYLGLTVGGTLSNAGVSGQAFRYGPQTSNVTELDVVTGNGDVVTCSEIENSELFFSVLGGLGQFGIITRARVLLQPAPDMVRWIRVVYTEFDEFTQDAEWLVSQKNESSFDYVEGFVFVNGADPVNGWPTVPLHPDHEFDPTRLPQSCGSVLYCLELGLHYRDSDSNSTIDKRVERLIGRLRFNEGLRFEVDLPYVDFLLRVKRSEEIAKENGTWETPHPWLNLFVSKRDIGDFNRTVFKELVKNGVNGPMLVYPLLRSRWDDRTSVVIPEEGEIFYIVALLRFVPPCAKVSSVEKMVAQNQEIVHWCVKNGIDYKLYLPHYKSQEEWIRHFGNRWSRFVDRKAMFDPMAILSPGQKIFNRSL | soluble
12 | GPGSMIHPMAVDRLLPSQEAAELIELTREIADKVLDPIVDRHEKDETYPEGVFEQLGAAGLLSLPQPEEWGGGGQPYEVYLQVLEEIAARWASVAVAVSVHSLSSHPLLVFGTEEQKKRWLPGMLSGEQIGAYSLSEPQAGSDAAALRCAATPTDGGYVINGSKSWITHGGKADFYTLFARTGEGSRGVSCFLVPADQPGLSFGKPEEKMGLHAVPTTSAFYDNARIDADRRIGEEGQGLQIAFSALDSGRLGIAAVATGLAQAALDEAVAYANERTAFGRKIIDHQGLGFLLADMAAAVATARATYLDAARRRDQGRPYSQQASIAKLTATDAAMKVTTDAVQVFGGVGYTRDYRVERYMREAKIMQIFEGTNQIQRLVIARGLTR | soluble
13 | QLAAIDAFDRLTALMTSHFDIDVAFVGLMDEHEERFVACEGANWRTLAREDTICTHTILSDETMVVEDTHEDPRFAEVDALKRLNIRSYAGGRITDREGNAIGAVCCTDGEPRRYTQTERDDLQRFADEVEEQLLLRRRLQGDR | not soluble
14 | MQMNHPIYIASDHTGLELKSLVIKHLEQQKLQVIDLGPTELDPLDDYPDYAFLLAQTMQANPNSLGILICGTGVGVCMAANKAKGILAALVVDSKTAALARQHDDANVLCLSSRFVVPEENIKIVDEFLQAQFEGGRHSKRVGKIIAYEREK | soluble
15 | MKTTGAGQLGTQLGKIKTSLRQQIHTGVVSQGQKLPSERELSELFSTTRITIKDALVSLETEGLIYREERRGWYVSPERICYNPLSRSHFHQMIREQHRIAATQLISVRSEMAAGDYAKALDIEQMTPIHIIERLRCIDGRAVLFVENVLKASLFDGILAENLTMSLTGIYREKYGYETMRSRFDVIPTSAPAHVAKALNLAEGQPVLKICRVNYKQDGELMDCELEYWRPDAVMIRIDSVG | not soluble
